Among the data in article PMC7846742 are coupling yield and percent of AZI conjugated within 10 min values, retold here.

The experiment has as its target His6-OAZ-GSY-SPM-Ctag (human | Neisseria meningitidis serogroup B (strain MC58)) (UniProt Q9JYV5). In words: cross-linking; NeissLock: Ca2+-induced aspartic anhydride on OAZ reacts with the docked partner; purified proteins mixed at 10 µM each or as indicated (AZI 2.5 µM each; Fig. 4b 0.5 µM each; 30 µM ODC with 10 µM OAZ-Y-SPM), 37 °C, HBS pH 7.4 with 2 mM TCEP, 10 mM CaCl2 unless varied (pH 6.5-8.5, 0.5-10 mM Ca2+, TBS, lyophilised probe); SDS-PAGE with Coomassie, intact ESI-MS, tryptic LC-MS/MS.

Sequence of His6-AZI-Ctag (human Antizyme Inhibitor) (O14977 whole entry): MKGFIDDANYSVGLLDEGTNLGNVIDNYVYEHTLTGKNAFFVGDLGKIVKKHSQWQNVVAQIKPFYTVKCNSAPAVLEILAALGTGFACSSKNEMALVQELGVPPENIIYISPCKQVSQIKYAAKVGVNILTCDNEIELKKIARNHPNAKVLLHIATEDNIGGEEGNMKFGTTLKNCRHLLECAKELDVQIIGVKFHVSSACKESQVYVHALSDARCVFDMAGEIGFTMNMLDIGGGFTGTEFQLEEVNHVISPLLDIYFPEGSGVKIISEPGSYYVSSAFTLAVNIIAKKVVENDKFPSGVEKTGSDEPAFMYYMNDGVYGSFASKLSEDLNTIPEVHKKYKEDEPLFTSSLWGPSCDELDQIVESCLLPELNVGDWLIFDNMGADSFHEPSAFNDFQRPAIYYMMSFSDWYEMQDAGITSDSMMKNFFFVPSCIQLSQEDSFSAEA

As for “His6-AZI-Ctag (human Antizyme Inhibitor) (from UniProt O14977 1-448) (natural protein)”, the coupling yield worked out at 80% and the percent of AZI conjugated within 10 min is above 50%.
